Values of other authors in article PMC9696605 (Viruses, 2022).

Target: Fyn-SH3 (Homo sapiens, UniProt P06241)
Details: phosphorylated MBP

Chain of Fyn-SH3 (P06241 with tags, fused parts or gaps): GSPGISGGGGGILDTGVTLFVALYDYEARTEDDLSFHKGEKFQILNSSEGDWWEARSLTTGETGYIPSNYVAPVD

B1: phospho-MBP: phosphorylated myelin basic protein (protein, UniProt P02687 1-169, looked up)
Myelin basic protein: AAQKRPSQRSKYLASASTMDHARHGFLPRHRDTGILDSLGRFFGSDRGAPKRGSGKDGHHAARTTHYGSLPQKAQGHRPQDENPVVHFFKNIVTPRTPPPSQGKGRGLSLSRFSWGAEGQKPGFGYGGRASDYKSAHKGLKGHDAQGTLSKIFKLGGRDSRSGSPMARR
modifications: phosphorylated
notes: phosphorylated myelin basic protein
- Effect of MBP phosphorylation on interaction with Fyn-SH3: phosphorylation weakens the interaction
